Source: paper PMC5376962

Target: Burkholderia pseudomallei N-type ATPase c-subunit (atpE), assembled into the c17 rotor ring, expressed alone in E. coli (Burkholderia pseudomallei)
Experiment: cryo-EM structure

Burkholderia pseudomallei N-type ATPase c-subunit (atpE), assembled into the c17 rotor ring, expressed alone in E. coli (natural protein)
stoichiometry N: 17
